Source: the RNAGym collection of RNA variant scans (doi:10.7554/elife.90254)

B1: LINE1-full (parent)
chain: UACGUAGGUGGUUUUCCCCUGAUAGUGCUAAGGGGGCCUGGAAGUUUGGACUGGGCAGAGCUCAACACAGCGUGGCAAAGUGGCUGUGGCUAGACUGCCUCUCUGGAUUCCUCGUCACUCAGCAGGGCAUCUCUGAGAGAAAUGCC

Variants of: B1
Experiment: self-cleavage, relative activity (ratio to wild type); higher = more cleavage; in vitro, sequencing; the parent is a self-cleaving ribozyme

**Q.** For UACGUAGGUGGUUUUCCCCUGAUAGUGCUAAGGGGGCCUGGAAGUUUGGACUGGGCAGAGCUCAACACAGCGUGGCAAAGUGGCUGUGGCUAGACUGCCUCUCUGGAUUCCUCGUCACUCAGCAGGGCAUCUCUGAGAGUAGUGCC [A140U A142G], which self-cleavage is on record?
**A.** 1.73

**Q.** Which self-cleavage does the source give for UACGUAGGUGGUUUUCCCCUGAUAGUGCUAAGGGGGCCUGGAAGUUUGGACUGGGCAGAGCUCAACACAGCGUGGCAAAGUGGCUGUGGCUAGACUGCCUCUCUGGAUUCCUCGUCACUCAGCAGGGCAUCUCUGAGAGACAAGCC [A141C U143A] here?
**A.** 1.79

**Q.** With UACGUAGGUGGUUUUCCCCUGAUAGUGCUAAGGGGGCCUGGAAGUUUGGACUGGGCAGAGCUCAACACAGCGUGGCAAAGUGGCUGUGGCUAGACUGCCUCUCUGGAUUCCUCGUCACUCAGCAGGGCAUCUCUGAGAGGGAUGCC [A140G A141G] as the variant, how does the self-cleavage read?
**A.** 0.53

**Q.** For UACGUAGGUGGUUUUCCCCUGAUAGUGCUAAGGGGGCCUGGAAGUUUGGACUGGGCAGAGCUCAACACAGCGUGGCAAAGUGGCUGUGGCUAGACUGCCUCUCUGGAUUCCUCGUCACUCAGCAGGGCAUCUCUGAGAGGAAUACC [A140G G144A], which self-cleavage is on record?
**A.** 0.92

**Q.** With UACGUAGGUGGUUUUCCCCUGAUAGUGCUAAGGGGGCCUGGAAGUUUGGACUGGGCAGAGCUCAACACAGCGUGGCAAAGUGGCUGUGGCUAGACUGCCUCUCUGGAUUCCUCGUCACUCAGCAGGGCAUCUCUGAGAGGAAAGCC [A140G U143A] as the variant, how does the self-cleavage read?
**A.** 0.79

**Q.** With UACGUAGGUGGUUUUCCCCUGAUAGUGCUAAGGGGGCCUGGAAGUUUGGACUGGGCAGAGCUCAACACAGCGUGGCAAAGUGGCUGUGGCUAGACUGCCUCUCUGGAUUCCUCGUCACUCAGCAGGGCAUCUCUGAGAGAAAAGUC [U143A C145U] as the variant, how does the self-cleavage read?
**A.** 1.39

**Q.** For UACGUAGGUGGUUUUCCCCUGAUAGUGCUAAGGGGGCCUGGAAGUUUGGACUGGGCAGAGCUCAACACAGCGUGGCAAAGUGGCUGUGGCUAGACUGCCUCUCUGGAUUCCUCGUCACUCAGCAGGGCAUCUCUGAGAGAAAUGAC [C145A], which self-cleavage is on record?
**A.** 0.95

**Q.** For UACGUAGGUGGUUUUCCCCUGAUAGUGCUAAGGGGGCCUGGAAGUUUGGACUGGGCAGAGCUCAACACAGCGUGGCAAAGUGGCUGUGGCUAGACUGCCUCUCUGGAUUCCUCGUCACUCAGCAGGGCAUCUCUGAGAGAAAUGUC [C145U], which self-cleavage is on record?
**A.** 1.32

**Q.** With UACGUAGGUGGUUUUCCCCUGAUAGUGCUAAGGGGGCCUGGAAGUUUGGACUGGGCAGAGCUCAACACAGCGUGGCAAAGUGGCUGUGGCUAGACUGCCUCUCUGGAUUCCUCGUCACUCAGCAGGGCAUCUCUGAGAGAAAUGGC [C145G] as the variant, how does the self-cleavage read?
**A.** 0.55

**Q.** With UACGUAGGUGGUUUUCCCCUGAUAGUGCUAAGGGGGCCUGGAAGUUUGGACUGGGCAGAGCUCAACACAGCGUGGCAAAGUGGCUGUGGCUAGACUGCCUCUCUGGAUUCCUCGUCACUCAGCAGGGCAUCUCUGAGAGGAAUGUC [A140G C145U] as the variant, how does the self-cleavage read?
**A.** 0.62

**Q.** Which self-cleavage does the source give for UACGUAGGUGGUUUUCCCCUGAUAGUGCUAAGGGGGCCUGGAAGUUUGGACUGGGCAGAGCUCAACACAGCGUGGCAAAGUGGCUGUGGCUAGACUGCCUCUCUGGAUUCCUCGUCACUCAGCAGGGCAUCUCUGAGAGGAAUGAC [A140G C145A] here?
**A.** 1.28

**Q.** With UACGUAGGUGGUUUUCCCCUGAUAGUGCUAAGGGGGCCUGGAAGUUUGGACUGGGCAGAGCUCAACACAGCGUGGCAAAGUGGCUGUGGCUAGACUGCCUCUCUGGAUUCCUCGUCACUCAGCAGGGCAUCUCUGAGAGAGACGCC [A141G U143C] as the variant, how does the self-cleavage read?
**A.** 1.31

**Q.** With UACGUAGGUGGUUUUCCCCUGAUAGUGCUAAGGGGGCCUGGAAGUUUGGACUGGGCAGAGCUCAACACAGCGUGGCAAAGUGGCUGUGGCUAGACUGCCUCUCUGGAUUCCUCGUCACUCAGCAGGGCAUCUCUGAGAGAUAAGCC [A141U U143A] as the variant, how does the self-cleavage read?
**A.** 0.6

**Q.** With UACGUAGGUGGUUUUCCCCUGAUAGUGCUAAGGGGGCCUGGAAGUUUGGACUGGGCAGAGCUCAACACAGCGUGGCAAAGUGGCUGUGGCUAGACUGCCUCUCUGGAUUCCUCGUCACUCAGCAGGGCAUCUCUGAGAGGACUGCC [A140G A142C] as the variant, how does the self-cleavage read?
**A.** 1.4

**Q.** With UACGUAGGUGGUUUUCCCCUGAUAGUGCUAAGGGGGCCUGGAAGUUUGGACUGGGCAGAGCUCAACACAGCGUGGCAAAGUGGCUGUGGCUAGACUGCCUCUCUGGAUUCCUCGUCACUCAGCAGGGCAUCUCUGAGAGGAGUGCC [A140G A142G] as the variant, how does the self-cleavage read?
**A.** 1.17

**Q.** Which self-cleavage does the source give for UACGUAGGUGGUUUUCCCCUGAUAGUGCUAAGGGGGCCUGGAAGUUUGGACUGGGCAGAGCUCAACACAGCGUGGCAAAGUGGCUGUGGCUAGACUGCCUCUCUGGAUUCCUCGUCACUCAGCAGGGCAUCUCUGAGAGAGAUGCU [A141G C146U] here?
**A.** 1.31

**Q.** For UACGUAGGUGGUUUUCCCCUGAUAGUGCUAAGGGGGCCUGGAAGUUUGGACUGGGCAGAGCUCAACACAGCGUGGCAAAGUGGCUGUGGCUAGACUGCCUCUCUGGAUUCCUCGUCACUCAGCAGGGCAUCUCUGAGAGUAAUGUC [A140U C145U], which self-cleavage is on record?
**A.** 1.63

**Q.** Which self-cleavage does the source give for UACGUAGGUGGUUUUCCCCUGAUAGUGCUAAGGGGGCCUGGAAGUUUGGACUGGGCAGAGCUCAACACAGCGUGGCAAAGUGGCUGUGGCUAGACUGCCUCUCUGGAUUCCUCGUCACUCAGCAGGGCAUCUCUGAGAGCGAUGCC [A140C A141G] here?
**A.** 0.41

**Q.** With UACGUAGGUGGUUUUCCCCUGAUAGUGCUAAGGGGGCCUGGAAGUUUGGACUGGGCAGAGCUCAACACAGCGUGGCAAAGUGGCUGUGGCUAGACUGCCUCUCUGGAUUCCUCGUCACUCAGCAGGGCAUCUCUGAGAGAUGUGCC [A141U A142G] as the variant, how does the self-cleavage read?
**A.** 1.79

**Q.** Which self-cleavage does the source give for UACGUAGGUGGUUUUCCCCUGAUAGUGCUAAGGGGGCCUGGAAGUUUGGACUGGGCAGAGCUCAACACAGCGUGGCAAAGUGGCUGUGGCUAGACUGCCUCUCUGGAUUCCUCGUCACUCAGCAGGGCAUCUCUGAGAGAAACACC [U143C G144A] here?
**A.** 2.03
